Source: the supplement of paper PMC9112550, “Optimization of the antimicrobial peptide Bac7 by deep mutational scanning” (BMC Biology, 2022)

Tested on: Escherichia coli TOP10
Experiment: shrunken log2 fold change of peptide-encoding DNA abundance (4.5 h post-induction vs induction); higher = less antimicrobial activity (less host growth inhibition)
Settings: time post-induction: 4.5 h; library: site-saturation at positions 5, 18, 19, 20
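Also: peptides expressed intracellularly from a pBAD plasmid library in pooled LB shake-flask culture, induced with 0.3% L-arabinose, DNA abundance read by NGS, three biological replicates, DESeq2 with apeglm shrinkage.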

Sequence	shrunken log2 fold change
RRIRIRPPRLPRPRPRPDRPPRP	-0.0549
RRIRGRPPRLPRPRPRPTEAPRP	-0.0279
RRIRQRPPRLPRPRPRPYMCPRP	-0.184
RRIRNRPPRLPRPRPRPAIPPRP	-0.202
RRIRYRPPRLPRPRPRPKEDPRP	-0.122
RRIRQRPPRLPRPRPRPQSRPRP	0.00465
RRIRSRPPRLPRPRPRPTTCPRP	0.0283
RRIRRRPPRLPRPRPRPCTWPRP	-0.0877
RRIRSRPPRLPRPRPRPCTSPRP	-0.0192
RRIRHRPPRLPRPRPRPLAEPRP	0.243
RRIRGRPPRLPRPRPRPDTTPRP	0.903
RRIRPRPPRLPRPRPRPTYHPRP	-0.274
RRIRHRPPRLPRPRPRPEQYPRP	-0.224
RRIRKRPPRLPRPRPRPMHTPRP	0.192
RRIRLRPPRLPRPRPRPQHAPRP	-0.0395
RRIRPRPPRLPRPRPRPNMAPRP	0.478
RRIRNRPPRLPRPRPRPYQVPRP	-0.0131
RRIRWRPPRLPRPRPRPLCTPRP	0.106
RRIRCRPPRLPRPRPRPDIHPRP	-0.468
RRIRHRPPRLPRPRPRPSWKPRP	-0.0518
RRIRTRPPRLPRPRPRPNMEPRP	0.343
RRIRGRPPRLPRPRPRPTCEPRP	1.1
RRIRIRPPRLPRPRPRPNESPRP	-0.243
RRIRCRPPRLPRPRPRPLLHPRP	-0.319
RRIRRRPPRLPRPRPRPFYYPRP	-0.204

Sequence	shrunken log2 fold change
RRIRHRPPRLPRPRPRPMFSPRP	-0.256
RRIRFRPPRLPRPRPRPQRSPRP	-0.105
RRIRGRPPRLPRPRPRPKFMPRP	0.316
RRIRCRPPRLPRPRPRPPFRPRP	0.377
RRIRFRPPRLPRPRPRPVCVPRP	-0.168
RRIRYRPPRLPRPRPRPRYDPRP	-0.21
RRIRERPPRLPRPRPRPHWWPRP	0.193
RRIRNRPPRLPRPRPRPCKMPRP	-0.00674
RRIRMRPPRLPRPRPRPTTFPRP	0.00693
RRIRMRPPRLPRPRPRPGYRPRP	0.158
RRIRWRPPRLPRPRPRPAYCPRP	-0.0978
RRIRQRPPRLPRPRPRPGRVPRP	0.422
RRIRMRPPRLPRPRPRPTIEPRP	0.43
RRIRWRPPRLPRPRPRPMHTPRP	0.643
RRIRGRPPRLPRPRPRPMYTPRP	0.876
RRIRGRPPRLPRPRPRPPCLPRP	0.503
RRIRVRPPRLPRPRPRPNNWPRP	-0.183
RRIRPRPPRLPRPRPRPICWPRP	0.0407
RRIRFRPPRLPRPRPRPCSTPRP	-0.177
RRIRSRPPRLPRPRPRPNRVPRP	-0.048
RRIRHRPPRLPRPRPRPDEFPRP	-0.0223
RRIRQRPPRLPRPRPRPWPPPRP	0.16
RRIRTRPPRLPRPRPRPNHNPRP	-0.914
RRIRRRPPRLPRPRPRPCKPPRP	0.151
RRIRRRPPRLPRPRPRPSQAPRP	0.113

Sequence	shrunken log2 fold change
RRIRCRPPRLPRPRPRPCFRPRP	-0.33
RRIRNRPPRLPRPRPRPNTIPRP	-0.0529
RRIRTRPPRLPRPRPRPNWWPRP	0.188
RRIRIRPPRLPRPRPRPMDLPRP	-1.16
RRIRSRPPRLPRPRPRPFWCPRP	-0.0118
RRIRSRPPRLPRPRPRPQCQPRP	-0.146
RRIRSRPPRLPRPRPRPFYGPRP	-0.507
RRIRKRPPRLPRPRPRPDSCPRP	-0.0303
RRIRRRPPRLPRPRPRPWAQPRP	0.882
RRIRRRPPRLPRPRPRPRYKPRP	-0.0686
RRIRRRPPRLPRPRPRPLCFPRP	0.898
RRIRRRPPRLPRPRPRPELAPRP	0.927
RRIRCRPPRLPRPRPRPPDGPRP	-0.0323
RRIRERPPRLPRPRPRPNGGPRP	-0.0469
RRIRLRPPRLPRPRPRPAKYPRP	-0.694
RRIRIRPPRLPRPRPRPVMYPRP	-0.052
RRIRMRPPRLPRPRPRPATWPRP	0.515
RRIRDRPPRLPRPRPRPQESPRP	-0.257
RRIRKRPPRLPRPRPRPCANPRP	0.232
RRIRFRPPRLPRPRPRPPIMPRP	-0.451
RRIRMRPPRLPRPRPRPRKEPRP	0.704
RRIRARPPRLPRPRPRPKCDPRP	0.39
RRIRNRPPRLPRPRPRPVMWPRP	0.351
RRIRCRPPRLPRPRPRPDETPRP	-0.0127
RRIRARPPRLPRPRPRPATVPRP	0.214

Sequence	shrunken log2 fold change
RRIRGRPPRLPRPRPRPQTLPRP	0.614
RRIRIRPPRLPRPRPRPLPSPRP	-0.0327
RRIRERPPRLPRPRPRPSPPPRP	-0.013
RRIRMRPPRLPRPRPRPFWNPRP	-0.266
RRIRNRPPRLPRPRPRPDRWPRP	0.00119
RRIRPRPPRLPRPRPRPVHCPRP	0.046
RRIRDRPPRLPRPRPRPDNYPRP	-0.117
RRIRYRPPRLPRPRPRPHMAPRP	-0.155
RRIRTRPPRLPRPRPRPHTCPRP	-0.0347
RRIRGRPPRLPRPRPRPPKKPRP	1.03
RRIRERPPRLPRPRPRPRWYPRP	-0.464
RRIRTRPPRLPRPRPRPMKSPRP	-0.203
RRIRKRPPRLPRPRPRPFDPPRP	-0.145
RRIRPRPPRLPRPRPRPNQFPRP	-0.204
RRIRRRPPRLPRPRPRPYSGPRP	-0.000826
RRIRCRPPRLPRPRPRPADRPRP	-0.0122
RRIRQRPPRLPRPRPRPYYVPRP	-0.0108
RRIRMRPPRLPRPRPRPQLNPRP	0.158
RRIRMRPPRLPRPRPRPQLEPRP	0.0634
RRIRERPPRLPRPRPRPAKVPRP	-0.182
RRIRHRPPRLPRPRPRPRTEPRP	0.218
RRIRIRPPRLPRPRPRPHKIPRP	-0.462
RRIRYRPPRLPRPRPRPPSKPRP	-0.409
RRIRGRPPRLPRPRPRPGYCPRP	-0.183
RRIRCRPPRLPRPRPRPWKCPRP	-0.0193

Sequence	shrunken log2 fold change
RRIRTRPPRLPRPRPRPTQHPRP	0.22
RRIRMRPPRLPRPRPRPYLDPRP	0.107
RRIRSRPPRLPRPRPRPGWWPRP	4.72
RRIRCRPPRLPRPRPRPPMQPRP	0.516
RRIRDRPPRLPRPRPRPPDYPRP	-0.0704
RRIRARPPRLPRPRPRPCERPRP	-0.00198
RRIRGRPPRLPRPRPRPVVNPRP	0.0184
RRIRGRPPRLPRPRPRPIADPRP	0.16
RRIRERPPRLPRPRPRPFQQPRP	-0.0184
RRIRPRPPRLPRPRPRPTCKPRP	-0.0419
RRIRFRPPRLPRPRPRPSTFPRP	-0.945
RRIRCRPPRLPRPRPRPYLVPRP	-0.584
RRIRPRPPRLPRPRPRPTNKPRP	-0.208
RRIRKRPPRLPRPRPRPYNNPRP	-0.286
RRIRWRPPRLPRPRPRPMNLPRP	-0.063
RRIRGRPPRLPRPRPRPPHFPRP	0.67
RRIRGRPPRLPRPRPRPAPLPRP	0.893
RRIRERPPRLPRPRPRPEGWPRP	0.668
RRIRWRPPRLPRPRPRPPNMPRP	0.0854
RRIRYRPPRLPRPRPRPPHQPRP	0.378
RRIRYRPPRLPRPRPRPEYLPRP	-0.139
RRIRGRPPRLPRPRPRPRHNPRP	0.0863
RRIRQRPPRLPRPRPRPDCIPRP	-0.0167
RRIRERPPRLPRPRPRPQRHPRP	1.63
RRIRLRPPRLPRPRPRPNDLPRP	-0.00842
